The text below walks through data of the DeepSol protein solubility set.

The nature of the series: soluble on expression in E. coli; label from the status in PepcDB or PDB records.
For “MGSDKIHHHHHHMFSDMTLLQYINSEDRGFFLPDMGTNGLFLINKKAYEVYDSVDLQLELAKTMDKYFESDFIYSFCDGITFCETLGLETLRPDYDFPSVLTHTITDRDKLRKLDVPDPYTSGRMPLNIESLSVISKSIKKPLYESIQGPFTLAGQLAGATQLLRCIITDKKFVEELLEFTTELVRRYAVAANKAGAKYISIAEPTSVTLSKDRFDEFIVKNLNKIYNELDCWKGMHICGDTRELLDNMLSCNIDAVSLDQILDYEEIAPMIPRDIVLIGNLDPIKLLGRSKPDKIRRETLKLLKKMRRYDNFLCDFGCNCLNTTPVENLQAAIKAGRISYKELDRIDIDEL”, the “soluble on expression in E. coli” value was “not soluble”. For the sequence “MIKHLVAPLVFTSLILTGCQSPQGKFTPEQVAAMQSYGFTESAGDWSLGLSDAILFAKNDYKLLPESQQQIQTMAAKLASTGLTHARMDGHTDNYGEDSYNEGLSLKRANVVADAWAMGGQIPRSNLTTQGLGKKYPIASNKTAQGRAENRRVAVVITTP”, the “soluble on expression in E. coli” value is on record as “not soluble”. As to “MSLNEFPSRPIKLVVPYPAGGTLDIVGRNIAKMAEASLGEPIVADNVPGASGVIAHSQIARAPADGYTIGMSGLSPLVLAPHQYKNLPYSPLKDLSYVACFGETPLVLNVAISLPVKTVQELVAYAKANPGKLNYGSAGIGNASYLAAALFARQAGIEISHVPYKGNAPAMIDLVGGQIPILFDPPQTTLPQAATGKVRPLAVTSSQRFPGLPTLPTIAEAGWANYEFSIWYAMVAPAGVTLPPKNVSLAEWFNASKENGNDEDSAGALHAGIQAAARATAGTTPAARPCSVREGHHHHHH”, the “soluble on expression in E. coli” value is given as “not soluble”. With “VLPHARKVARETGIPEHFMIAQAALETGWGRHQIRRADNQPSFNLFGIKASGNWRGGVVETVTTEYVDGKPQKLREKFRTYDSYEDAFRDYAKLLQNNPRYAAVLKSRSATAFAWGLQQAGYATDPSYAEKLLKIINSDALSI”, the “soluble on expression in E. coli” value is given as “not soluble”. “MGSDKIHHHHHHMARYTGPLCKLCRREGMKLYLKGERCYTDKCAFDRRPYAPGQHGQRRTKLTQYGIQLRAKQTVKRIYGILERQFERYVEKAMQKAGDTRENLIQILEARLDNVVYRMGFAINRRQARQLVNHGHFLVNGKKVNIPSYLLRPNDVVEVREKSRDLEVIKKAIEANKERSIVPWIEVDYDNYRGTFLRYPSLEEVTDLPVDLQTVIEFYSR”: the “soluble on expression in E. coli” value is given as “not soluble”. On to “MSLIESVMTVLVTRPDEQGAELCQLLHQQGIPALHHPLLAISASPQLAALAEDLSSFDIIIAVSQHAVIFSDQFLQHRRICWPNNAIYLAVGQKTAHVFSKACQQSVDYPEISDSEHLLALSMLRDVAGKKVLILRGNGGRELIYSTLVERGATVRYQEAYCRHERPFAAAECVQKWQLAKVDSLVITSSEQLAFFIRQFETSHLPWVQQLTLLVPSQRIATLAHQLGFHRIVVTLSAANRDLVAALMPEKPTGTLSNDQQQEGHHHHHH”, for which the “soluble on expression in E. coli” value is given as “soluble”. In the case of “MAHHHHHHVDDDDKMVTDQRWLIDKSALVRLTDSPDMEIWSNRIERGLVHITGVTRLEVGFSAECGEIARREFREPPLSAMPVEYLTPRIEDRALEVQTLLADRGHHRGPSIPDLLIAATAELSGLTVLHVDKDFDAIAALTGQKTERLTHRPPSA”, the “soluble on expression in E. coli” value is “soluble”. As for “MLGTISMRFFATKVVAPRASVAASTPQVPLGMNINPYAMFIKENFKANTSDMKRTDLMKELSGKWKALSISEKDKYTELSKNYNAQKLDDFMKLSTEEQKKLVDSAKEKKAERASRRHAKERREKRKQSGRPSVPPSAYALFIKEKLSGAGMESKEKMKEAVAQWKAFTDSQKKKYTDEAKKLKDEYHVVLQKWEAEQKENADQ”, the “soluble on expression in E. coli” value is reported as “not soluble”. To “SAASGEEDMSELSPAAAPNLDWYEKPEETHAPEVDLETVIPPAQEPSNPAEPFCPRDLVPVVFPGPVSQEDCCQFTCELLKHILYQRHQLPLPYEQLKHFYRKAPQAEDTARKKAWLATEARNRKCQQALAELESVLSHLRDFFARTLVPQVLILLGGNALSPKEFYELDLSRLAPFGVDQGLNTAACLRRLFRAIFLADPFSELQTPPLMGTIVMVQGHRDCGEDWFQPKLNYRVPSRGHKLTVTLSCGRPSVPAMASEDYIWFQAPVTLKGFHE” belongs “soluble”. With “MSLGSGVAEPEFPVHGDDRAAAFFDLDNTVMQGAAIFHFGRGLYKRKFFETRDLARFAWQQAWFRLAGFEDPEHMQDARDSALSIVKGHRVSELKSIGEEIYDEYMAERIWPGTRALAQAHLDAGQKVWLVTAAPVEIAQVIARRLGLTGALGTVAESIGGVYTGKLVGEPLHGPAKAEAVRALATAEALDLSRCAAYGDSHNDIPMLSLVGHPYAINPDSKLRKHARELEWRLRDYRTGRKAAKEGHHHHHH”, the “soluble on expression in E. coli” value is on record as “soluble”. As to “MGSDKIHHHHHHMGAMRPNQTFSHKAAVKLRSVEFLQYAGVTKFHDVILTSLVDINIGIGKRGSAQIKLPYTCVSGSLANTSGTADISLAYTHAVLVKDTYQLLGTLGGKLPTNNADKLSSDGRPLPMYYQTSLGTNDLVVGLSFITRKWLLATGYQHAFNQIGNDFRWSEWNSSAQRTEALEYPPSWNLKRGSDVMFRIERNFRSTKWNAYLGLLTIYRITPDQVSKGTSENRVEVPNTTGPAITALSGAGYRFSTAVALKAMVGVKIINRDTNPDGLSREFVSSLSVEIRL”, the “soluble on expression in E. coli” value is reported as “not soluble”.

In the case of “MVELLAPARDLSGLITAFNNGADSVYCGLKEMSMRATAKNFERNELIEGINFAHDADKRVYLCTNTVVYEDDILNLNEILEFAKSAEVDAIIVNDIGAMVTAKELGLEVHVSVQNNITNSKTAEFFSKFAKRVVLSRELTLNQIKRIKENLKVNKVDLELEGFIHGALCTAMSGRCYLSSYLFNRNANCGDCLQPCRRSWKLVNEHADGTHELISEGKYLLSPKDLCMIEHIPEMIDVFDCFKIEGRAKNVDYVMRATKTYREAIDSVVDGTYEEKLPIFKKELDKIYNREYDTGFYFRDLTCNHDLQYEFEGNVSPYKKIEVGKVVNYFKKVDVAEITLIDDLKVGDSVLIIGPTTGCIEEKIESMQVEGENITTAKKGQNVGIKLENLVRENDKVYILKED”, the “soluble on expression in E. coli” value was “not soluble”.

Turning to “MENLYKELGDQSLHKDFCQTVASTFSCSVNRNGKSSITWKQVQIWFQEKLKHQSQPKSKTLPSPPLQIHDLSNPSSYASNASNATFVGNSTFVQTRKGKASDLADLAFEAKSARDYAWYDVSSFLTYRVLRTGELEVRVRFSGFDNRHDEWVNVKTSVRERSIPVEPSECGRVNVGDLLLCFQEREDQALYCDGHVLNIKRGIHDHARCNCVFLVRYELDNTEESLGLERICRRPEE”, the “soluble on expression in E. coli” value is “not soluble”. Next, “MAHHHHHHMWFGQLVIGPPGSGKSTYVAGVEHILRQINRKLVLINLDPFVENDVYKADVNISDLVDIKKVFCDLGLGPNGTLIYCMEYLLINFDWLEEKLKEHKDHYLLIDTPGQVELYTHNDALRKIVEKMTKMNCRLTSVHIVDSTLCSDNYKYVSALLLSLCSQIHLELPHVNVFSKIDLLKYFRDDLNFPLSYYVEAQNLEQLMLYARYQNESSSGSEGVNMGDDSPSGSLNDRSSCAQSAIKQAIRNDINSGRIKNVRKNYKKFSNKFLKLNEYICETVEDYNMINFALLDIQDKYSVLKLLKIIDGANGFRFSSIYSEYSLFDTYAEAIEYDCDDIQEKIVDVSDEEKEASLSGHPPHG”: “not soluble”; “MAMSKVKSITRESWILSTFPEWGSWLNEEIEQEQVAPGTFAMWWLGCTGIWLKSEGGTNVCVDFWCGTGKQSHGNPLMKQGHQMQRMAGVKKLQPNLRTTPFVLDPFAIRQIDAVLATHDHNDHIDVNVAAAVMQNCADDVPFIGPKTCVDLWIGWGVPKERCIVVKPGDVVKVKDIEIHALDAFDRTALITLPADQKAAGVLPDGMDDRAVNYLFKTPGGSLYHSGDSHYSNYYAKHGNEHQIDVALGSYGENPRGITDKMTSADMLRMGEALNAKVVIPFHHDIWSNFQADPQEIRVLWEIKKDRLKYGFKPFIWQVGGKFTWPLDKDNFEYHYPRGFDDCFTIEPDLPFKSFL”: “not soluble”; “MAHHHHHHMLHEPVSTANGHMPRRSSLGCRLRSSPFLSCVAYVNTLTCDSLMHALRATVSQRIATGVDVECHRLTSGAAVVSTPTQVHISITSANFVRQRSSRPALLPLLTHPPPPSPSLHPVMSRSRQQQAAEVTLHHFFKTERVIRLECERREAKARLKLIDIMSGDLDDQLLCVAQFKKEWLQSRRVLEEARQAVVQEEGSKRAYVEEEYVRTINTMSRHYHPLSSRVV”: “not soluble”. To “MGSDKIHHHHHHMGDVTVKDYKGGTIEDPEELKSNQTILTIDQAKYFNFKVDDVDKAQSNILLVDKGMGRASYAVQDVIDKFIAALVKDAKIKIGSTSKPIEITVANAYDTLVDLGVELDNKNVPRVGRFAILPPFYLGLLSKDPRFTKDFKILENGVVEGATVSGFKLMMSNNVPFSANNYSIMAGTDMAISYAGQVTEIEAYRPEKSFSDAMKGLYVFGAKVVQPDCLACLTVKQKVAEV” belongs “not soluble”; to “MSATAGRVVRAGQHAVRTVAPIKSNNSAEARMSVLAAYKEFQRLTPKFWWDFGLHDMPLGVFRAVIKKQFTKNGHLTDVRVVDRLVGETHQHMKSIRYAFYNPDHVRNYLFAENVEAKPKDFLSKFLNGKE”, “not soluble”; to “MFPVNCYVLWDDTKEAVVIDPGCFYEEEKQALKKFILTNELTVKHLLNTHLHLDHIFGNPFMLKEFGLSAEANKADEFWIDEAPKQSRMFGFQLQEEPVPLGKYLHDGDIITFGHTKLEAIHVPGHSPGSLVYYCKEENCMFSGDVLFQGSIGRADLSGGNFDELIDHICSRLFVLPNETVVYPGHGAPTTIGMEKAENPFFR”, “not soluble”.

As for “MSLVPRIAVLGCGHWGGNHIRTLQSLRALAAVSDVDSDRAASFASLYGVDAVAPDDLFTRRDIDALVLALPPQFHTENVLRAVKNGKDVLVEKPIALDVVDAECQVQAAREYGRILMVGHILRFHPAFEKISELVENGELGDVCYIYSHRLGFGKFHTQSDALWDLAPHDLSMILALTGCEPSEVRGEGAAVIDQCSDFAHIHMAFPNGIRSHLFASRLSPYRERRLMVVGTKAMLVFDDMEPWSRKVAFHPFAVWKENQEWAFSTDELSYINIYEDLPLTCELKHFLHCIETRQSPRTNGDDALAILRILTAAGVNYQKEGHHHHHH”, the “soluble on expression in E. coli” value is “soluble”.

As for “MAQFIDRRLNGKKKSTVNRQRFIRRHKDQIKRAVSDAVNQRSVTNTESGESISIPKGDISEPVFHQGQGGIRERVLPGNDQFIKGDKIERPQGGNGGGGAGDGDASADGEGQDDFIFQISKDEYLDILFEELELPNLEKNQVQKITEWETHRAGYQTAGVPSNIDIVRSLQQSLARRTAMTAGKKRLLSELEQELETIKNSEPSQPLAVRKMQEQIEELRERIKHVPYIDSFDLRYKNYERTPIPSSQAVMFCLMDVSGSMDQATKDIAKRFYVLLYLFLTRTYENVEVVFIRHHTQAKEVNEHDFFYSQETGGTMVSSALKLMRDIVAERFPANEWNIYAAQASDGDNWADDSPKCKELLTSSILPTCQYYSYIEITKRHHQTLWTEYDKLAQGFDNFAMKNIRSVEDIYPIFRELFQKQLALEHHHHHH”, the “soluble on expression in E. coli” value is listed as “not soluble”. On to “SLENKIVKIEPQSIAEEMGIEVGDSLISINGKEVKDIIDYRFLMADEYVVVKIQKTNKEIWELEIEKEYDEKLGVEFESGILDSAKSCRNKCIFCFIDQLPKGMRKTLYFKDDDSRLSFLQGNFVTLTNMSDDDIDRIIKYRISPINISVQTTNPELRKKMLNNKFAGNLMERMKKLSNAGITMNCQVVLCPGINSGEEFSKTVNDLYKLYPSVKNIAGVPVGITSYREGLFNMVPYDSQSALKEIENIKPIQEKFIKEIGSPFVRLSDEFYVLSGIPIPKAEFYGEFEQFEDGIGMIRTFRDNINMSLDNLKDGIHKSFTMVTGVLAYEEIENAAKMLMEKSRGLKINVIKVINEFFGEKITVAGLLTGRDILNYLKRNEVGDYIILPSNMLKSDEDVFLDDVKVLDIEKELNKKVLVCNYSGEDLVDIINKNGREE”, for which the “soluble on expression in E. coli” value is “soluble”.
